The target in the assay is RNF216, Q9NWF9-3.
Chain of RNF216, Q9NWF9-3 (Q9NWF9 379-866): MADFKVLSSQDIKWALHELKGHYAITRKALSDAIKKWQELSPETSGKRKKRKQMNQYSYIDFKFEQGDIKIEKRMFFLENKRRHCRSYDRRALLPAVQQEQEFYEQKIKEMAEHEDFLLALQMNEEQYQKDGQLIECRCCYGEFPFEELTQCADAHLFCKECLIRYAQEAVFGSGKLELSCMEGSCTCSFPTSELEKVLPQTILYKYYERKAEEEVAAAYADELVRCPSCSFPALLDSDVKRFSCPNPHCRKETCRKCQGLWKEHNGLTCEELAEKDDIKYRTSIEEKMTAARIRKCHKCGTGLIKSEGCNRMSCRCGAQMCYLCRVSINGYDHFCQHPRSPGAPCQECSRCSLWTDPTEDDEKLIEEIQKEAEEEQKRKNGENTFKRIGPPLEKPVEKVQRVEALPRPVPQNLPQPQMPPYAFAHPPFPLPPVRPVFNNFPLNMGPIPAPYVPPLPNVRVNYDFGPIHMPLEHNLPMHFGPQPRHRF

Consider “Virion infectivity factor (Human immunodeficiency virus type 1 group M subtype B (isolate NY5) (HIV-1)), P12504 Q105A;L106A;I107A”, for which the “effect of a mutation on the interaction” value was “disrupting interaction”.

(Values after IntAct's records for PubMed 12600646.)
